This series deals with the molecule itself. Briefly: turbidity.

With SGYDFEREGYS [SGYDFEREGYS peptide (wild type peptide, NP 287-297)], the binding result is “binds”.

For the origin of these results see article doi:10.1101/847608 (bioRxiv, 2019).
